Measurements reported in the Immune Epitope Database (IEDB).

Legend:
Test in all cases: IEDB peptide-MHC binding, purified MHC/competitive/radioactivity; filed as Kd, often an IC50 or EC50 that approximates it; ≥ and ≤ were set here for values at or beyond the usual limits of such assays
Conditions in all cases: source organism: human papillomavirus 18
[1] = biological target: HLA-A*11:02
[2] = biological target: HLA-A*03:01
[3] = biological target: HLA-A*02:01
[4] = biological target: HLA-A*24:02
[5] = biological target: HLA-A*01:01

RCQKPLNPA
Kd [1]: 563 nM

DLFVVYRDS
Kd [2]: 1000 nM

IEITCVYCK
Kd [2]: 200 nM

HLNEKRRFH
Kd [2]: 667 nM

HTMLCMCCK
Kd [1]: 5 nM | Kd [2]: 73 nM

LLIRCLRCQ
Kd [2]: 508 nM

LFVVYRDSI
Kd [2]: 441 nM

ELTEVFEFA
Kd [3]: 500 nM

VYGDTLEKL
Kd [4]: 222 nM

KLPDLCTEL
Kd [3]: 602 nM

LIRCLRCQK
Kd [1]: 375 nM | Kd [2]: 526 nM

NTGLYNLLI
Kd [5]: 506 nM

RHTMLCMCC
Kd [4]: 733 nM

FQQLFLNTL
Kd [3]: 417 nM

RQERLQRRR
Kd [2]: 484 nM

TEVFEFAFK
Kd [1]: 257 nM

LQDIEITCV
Kd [5]: 988 nM | Kd [2]: 625 nM

DIEITCVYC
Kd [3]: 649 nM | Kd [5]: 506 nM | Kd [2]: 462 nM

LFLNTLSFV
Kd [3]: 820 nM

GQCHSCCNR
Kd [1]: 64 nM

SVYGDTLEK
Kd [1]: 2 nM | Kd [2]: 32 nM

CIDFYSRIR
Kd [1]: 27 nM | Kd [5]: 810 nM | Kd [2]: 273 nM

KCIDFYSRI
Kd [3]: 417 nM

FLNTLSFVC
Kd [3]: 943 nM

FKDLFVVYR
Kd [1]: 500 nM | Kd [3]: 500 nM | Kd [5]: 736 nM | Kd [2]: 330 nM

ATLQDIVLH
Kd [1]: 12 nM

SIPHAACHK
Kd [1]: 15 nM

VVYRDSIPH
Kd [1]: 5 nM

SLQDIEITC
Kd [3]: 532 nM

GLYNLLIRC
Kd [1]: 188 nM | Kd [3]: 135 nM | Kd [2]: 313 nM

VYCKTVLEL
Kd [1]: 563 nM | Kd [4]: 24 nM

FAFKDLFVV
Kd [3]: 3 nM
